B1: PmoA subunit of particulate methane monooxygenase from Methylomicrobium alcaliphilum 20Z (20Z-pMMO) (natural protein, UniProt G4SZ63 2-247, looked up)
chain: SASQSAVRSRAEAVKVSRTFDYMILFTVFFVVLGGYHIHYMLTGGDWDFWTDWKDRRLWVTVAPIVSITFPAAVQAVLWWRYRIAWGATLCVLGLLLGEWINRYFNFWGWTYFPVNFVFPSNLMPGAIVLDVILMLSNSMTLTAVVGGLAWGLLFYPGNWPIIAPLHVPVEYNGMMMTLADLQGYHYVRTGTPEYIRMVEKGTLRTFGKDVAPVSAFFSGFVSILIYFLWHFFGSWFGSEKFVQAA
modifications: initiator methionine removed (MetOFF); N-terminal acetylation (NtAc) on the new N-terminus
notes: PmoA subunit of pMMO, Methylomicrobium alcaliphilum 20Z; theoretical mass of the unmodified subunit 28,257.1 Da; found without the initiator methionine and N-terminally acetylated; also called 20Z-pMMO PmoA; source: endogenous, Mm. alcaliphilum 20Z membranes, solubilized with DDM, purified by anion exchange chromatography
B2: PmoC subunit of particulate methane monooxygenase from Methylomicrobium alcaliphilum 20Z (20Z-pMMO), truncated proteoform (natural protein, UniProt G4SZ62 7-250, looked up)
chain: SVKADAAEAPLLNKKNIIAGASLYLVFYAWVRWYEGVYGWSAGLDSFAPEFETYWMNFLYIEMVLEVLTASVLWGYIWKSRDRKVMSITPREELRRHFTHWTWLMMYGIAIYFGASYFTEQDGTWHQTIVRDTDFTPSHIIEFYLSYPIYIITGGASFLYAKTRLPTYQQGLSLQYLVVVVGPFMILPNVGLNEWGHTFWFMEELFVAPLHYGFVFFGWSALGVLGVINIELGALSKLLKKDLA
notes: PmoC subunit of pMMO, Methylomicrobium alcaliphilum 20Z; the major species is a truncated form without the first six N-terminal residues (MAATTE); theoretical mass of the whole subunit 28,851.4 Da; A minor PmoC species without the initiator methionine and with N-terminal acetylation was also seen from nanodiscs; also called truncated PmoC; 20Z-pMMO PmoC; source: endogenous, Mm. alcaliphilum 20Z …

Experiment [1] concerns the target T1, PmoB subunit of particulate methane monooxygenase from Methylomicrobium alcaliphilum 20Z (20Z-pMMO) (Methylomicrobium alcaliphilum 20Z, UniProt G4SZ64 33-414, methyl-lysine at Lys 36 (~100% stoichiometry)).
T1 construct: PmoB subunit of pMMO, Methylomicrobium alcaliphilum 20Z; residues His 33 to Ile 414 after cleavage of the N-terminal signal peptide; theoretical mass 42,147.17 Da; also called 20Z-pMMO PmoB; source: endogenous, Mm. alcaliphilum 20Z membranes, solubilized with DDM, purified by anion exchange chromatography
T1 sequence (looked up): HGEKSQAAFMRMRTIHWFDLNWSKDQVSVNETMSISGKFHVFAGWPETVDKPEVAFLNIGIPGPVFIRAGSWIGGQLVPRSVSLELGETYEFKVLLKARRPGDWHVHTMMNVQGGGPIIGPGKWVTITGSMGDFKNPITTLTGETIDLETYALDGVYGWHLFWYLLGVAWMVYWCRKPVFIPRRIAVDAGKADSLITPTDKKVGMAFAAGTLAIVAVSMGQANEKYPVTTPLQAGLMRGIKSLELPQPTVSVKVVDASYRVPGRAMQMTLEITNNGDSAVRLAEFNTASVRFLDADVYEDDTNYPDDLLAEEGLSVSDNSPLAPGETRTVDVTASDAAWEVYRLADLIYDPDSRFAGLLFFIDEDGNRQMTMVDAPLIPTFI
In words: native MS; pMMO solubilized in DDM, exchanged into 200 mM ammonium acetate, pH 7.2, 0.155% (w/v) Triton X-100; protomer ejected from the micelle (MS^1), then subunits ejected from the protomer by collisional activation (MS^2). The conditions noted are these: both partners purified.

Experiment [2] has as its target B1. The experiment in a line: native MS; pMMO in POPC nanodiscs (MSP2N2 or MSP1E3D1), 200 mM ammonium acetate, pH 7.2; subunits ejected from the pMMO-nanodisc complex by CID at the source (MS^2) and fragmented (MS^3); no intact mass of the complex obtained. The conditions noted are these: both partners purified.

Consider B1, for which the binding result in experiment [1] is on record as “binds”.

Consider B2, for which the binding result in experiment [1] and in experiment [2] was “binds” each time.

The values above are taken from publication PMC6572826, “Native top-down mass spectrometry provides insights into the copper centers of membrane-bound methane monooxygenase” (Nature Communications, 2019).
